The experiment concerns the target phosphodiesterase 6 delta subunit (PDE6δ), N-terminal histidine-tagged (UniProt O43924 1-150). The experiment in a line: FP; mantGppNHp-loaded Arl; stopped-flow.

2 molecules from paper PMC5512577 (2016) can be followed below.

phosphodiesterase 6 delta subunit (PDE6δ), N-terminal histidine-tagged, sequence (O43924 whole entry, stated change not applied): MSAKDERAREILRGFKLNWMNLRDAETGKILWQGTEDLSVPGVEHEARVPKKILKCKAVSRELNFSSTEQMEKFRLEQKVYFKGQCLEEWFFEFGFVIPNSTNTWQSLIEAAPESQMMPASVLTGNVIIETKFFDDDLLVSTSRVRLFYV

B1: full-length Arl2, C-terminal histidine-tagged, bound to GppNHp or mantGppNHp (natural protein)
chain: MGLLTILKKMKQKERELRLLMLGLDNAGKTTILKKFNGEDVDTISPTLGFNIKTLEHRGFKLNIWDVGGQKSLRSYWRNYFESTDGLIWVVDSADRQRMQDCQRELQSLLVEERLAGATLLIFANKQDLPGALSCNAIQEALELDSIRSHHWRIQGCSAVTGEDLLPGIDWLLDDISSRVFTAD
What is called koff is a measure of how fast the partners let go of each other. Lower therefore signals a long-lived complex. Turning to B1, the koff was 0.33 s⁻¹.

B2: N-terminally truncated Arl2 (aa 17-178), bound to mantGppNHp (domain or fragment)
chain: LRLLMLGLDNAGKTTILKKFNGEDVDTISPTLGFNIKTLEHRGFKLNIWDVGGQKSLRSYWRNYFESTDGLIWVVDSADRQRMQDCQRELQSLLVEERLAGATLLIFANKQDLPGALSCNAIQEALELDSIRSHHWRIQGCSAVTGEDLLPGIDWLLDDISS
Turning to B2, the koff amounted to 0.98 s⁻¹.
